Test results: the supplement of paper PMC9732359
± gives the uncertainty stated by the source.

Assay: protein stability index of a GFP-peptide fusion (yeast GPS) (PSI 1-4); higher = more stable; sorted into four equal gates, so the index is relative within each strain
Method in brief: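 For each peptide, the protein stability index sums the read frequency in every gate after multiplying it by the gate number. Read frequencies came from plasmids that were PCR-amplified from each gate and Illumina-sequenced, with reads assigned to strains by barcodes. The gates were four equal bins of GFP/Cherry fluorescence ratio applied to mid-log yeast in leucine-free medium carrying a pooled library of tiled 17-residue yeast protein peptides fused downstream of GFP on a Cherry-expressing plasmid.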

Sequence | protein stability index (doa10∆) | protein stability index (pdr5∆) | protein stability index (san1∆) | protein stability index (ubr1∆)
GFYQIKKIVDSKKLNLK [YMR129W/POM152] | 3.11 ± 0.12 | 2.98 ± 0.092 | 2.41 ± 0.24 | 2.62 ± 0.11
GGFTAYGGADYGEATSP [RPO21] | 1.79 ± 0.093 | 1.9 ± 0.069 | 1.98 ± 0.099 | 2.01 ± 0.068
GGGWDNVDQTKTQCPNY [RPC11] | 3.47 ± 0.13 | 3.25 ± 0.17 | 3.07 ± 0.078 | 3.22 ± 0.09
GGGYFSAAGMTAAIDSV [FAS1] | 3.11 ± 0.15 | 3.23 ± 0.11 | 3 ± 0.24 | 3.07 ± 0.15
GGKAGSAAKASQSRSAK [HTA1] | 3.17 ± 0.072 | 3.14 ± 0.071 | 2.84 ± 0.069 | 3.19 ± 0.048
GGNSTQNTSNMNAGGLF [YGR119C/NUP57] | 3.26 ± 0.093 | 3.15 ± 0.06 | 3.04 ± 0.055 | 3.19 ± 0.081
GGQHHHRINMDKYHPGY [RPL28] | 3.23 ± 0.1 | 3.36 ± 0.056 | 3.14 ± 0.1 | 2.99 ± 0.055
GGSSDTADKIRIHAKNF [GAL11] | 1.67 ± 0.066 | 1.86 ± 0.061 | 1.42 ± 0.072 | 1.68 ± 0.054
GGVPTTSFGQPQSAPNQ [YOR098C/NUP1] | 2.33 ± 0.071 | 1.99 ± 0.085 | 2.36 ± 0.11 | 2.15 ± 0.095
GHRADVGGQFSKVQFDA [REC8] | 3.25 ± 0.085 | 3.45 ± 0.11 | 3.28 ± 0.059 | 3.23 ± 0.056
GHSQFTSHYQNYHPNAS [RPN4] | 2.56 ± 0.049 | 2.44 ± 0.044 | 2.15 ± 0.09 | 2.22 ± 0.038
GIDLAYNMYDAYGNWFN [PRP8] | 2.94 ± 0.049 | 3.08 ± 0.04 | 3.05 ± 0.058 | 3 ± 0.045
GIDPTRIYTNSFIDIME [RPO21] | 2.64 ± 0.048 | 2.5 ± 0.045 | 2.77 ± 0.048 | 2.53 ± 0.034
GIFGMDFYVVMNRPGAR [RPL11A] | 1.8 ± 0.057 | 1.71 ± 0.064 | 2.49 ± 0.058 | 2.24 ± 0.047
GIGSLTDLMSIVQELLD [RPC34] | 3.49 ± 0.17 | 2.91 ± 0.16 | 3.23 ± 0.13 | 3.17 ± 0.13
GIKLALDPNLITLALSS [SRB4] | 2.21 ± 0.052 | 2.91 ± 0.065 | 2.58 ± 0.055 | 2.63 ± 0.04
GINSPLSSVALRSDFYI [YJL039C/NUP192] | 2.45 ± 0.15 | 2.78 ± 0.12 | 2.96 ± 0.14 | 3.07 ± 0.15
GIPPPYDKKKRVVVPQA [RPL16B] | 1.83 ± 0.046 | 2.2 ± 0.059 | 1.99 ± 0.12 | 2.13 ± 0.058
GIPTDKGPRFRKLTSQE [PRE8] | 3.14 ± 0.12 | 3.52 ± 0.18 | 3.01 ± 0.25 | 3.46 ± 0.25
GIQEVVHNTNSFIISSL [NUT1] | 2.12 ± 0.074 | 2.46 ± 0.059 | 2.04 ± 0.087 | 2.54 ± 0.066
GITYRREDMPFTAEGIV [RPB2] | 2.52 ± 0.096 | 1.86 ± 0.099 | 2.39 ± 0.13 | 2.07 ± 0.12
GIVLEKLGIESKQPNSA [RPS23A] | 2.05 ± 0.071 | 2.11 ± 0.072 | 1.92 ± 0.11 | 2.38 ± 0.1
GKELDSLDLNNLELGGL [PGD1] | 3.08 ± 0.12 | 3.25 ± 0.12 | 2.99 ± 0.085 | 3.24 ± 0.066
GKEVEVLMETKNTQSPQ [SNU114] | 3.19 ± 0.22 | 3.6 ± 0.095 |  | 3.44 ± 0.11
GKGDNDNGLGPLKYAPH [SWI3] | 2.69 ± 0.058 | 3.39 ± 0.12 | 2.85 ± 0.085 | 2.7 ± 0.052
